This assay deals with DrMoaE (MoaE of Deinococcus radiodurans, large subunit of MPT synthase) (Deinococcus radiodurans). The assay can be described thus: SEC; gel filtration profiles of DrMoaE and DrMoaER110A; standard curve from aprotinin, RNaseA, chymotrypsinogen A, ovalbumin and BSA. Background: In gel filtration, larger molecules generally elute earlier.

By stoichiometry N is commonly meant a count of units in the complex or per binding partner.

Turning to “DrMoaE (MoaE of Deinococcus radiodurans, large subunit of MPT synthase) (natural protein)”, the stoichiometry N was found to be 2.

Values taken from PMC9916421.
